Experiments:
[1] = molecular target: T1, human CD22-ECD-His protein (human, UniProt P20273 20-687); assay: ELISA, Ab 0.00001 nM
T1 construct: Made in house in HEK293E; also called hCD22-ECD-His; recombinant human CD22-ECD His protein; not shown: His tag
T1 sequence: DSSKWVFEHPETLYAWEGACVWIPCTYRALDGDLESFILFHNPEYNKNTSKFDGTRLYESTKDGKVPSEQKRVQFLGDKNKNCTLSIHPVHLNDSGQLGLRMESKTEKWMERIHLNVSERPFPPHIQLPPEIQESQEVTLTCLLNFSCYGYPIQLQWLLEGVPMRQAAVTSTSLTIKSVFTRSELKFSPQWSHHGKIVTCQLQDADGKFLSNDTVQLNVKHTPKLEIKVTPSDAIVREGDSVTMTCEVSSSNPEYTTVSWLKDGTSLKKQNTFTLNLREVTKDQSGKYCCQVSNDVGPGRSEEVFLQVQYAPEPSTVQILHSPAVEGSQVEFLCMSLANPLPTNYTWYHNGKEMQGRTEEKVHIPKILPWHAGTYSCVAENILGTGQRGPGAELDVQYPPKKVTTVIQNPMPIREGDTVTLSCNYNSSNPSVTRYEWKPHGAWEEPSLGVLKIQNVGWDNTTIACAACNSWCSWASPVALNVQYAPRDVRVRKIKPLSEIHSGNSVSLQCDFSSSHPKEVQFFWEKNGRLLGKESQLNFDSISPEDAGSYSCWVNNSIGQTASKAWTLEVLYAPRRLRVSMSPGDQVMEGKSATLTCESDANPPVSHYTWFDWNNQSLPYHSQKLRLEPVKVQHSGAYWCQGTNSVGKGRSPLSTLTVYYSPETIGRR
Summary of the method: (§1)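 Plates coated overnight at 4 °C with 2 μg/mL CD22-ECD-His and blocked with 2% BSA in PBS. Chimeric antibody bound at 37 °C for 2 h, followed by HRP-labeled secondary antibody at 37 °C for 2 h. TMB read-out developed 30 min at room temperature and stopped with 1.0 N HCl.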

[2] = molecular target: T1, human CD22-ECD-His protein; assay: ELISA, Ab 0.001 nM
Summary of the method: as §1

[3] = molecular target: T2, murine CD22 protein (ACROBiosystems, SI2-M52Ha) (murine, UniProt P35329 22-708); assay: ELISA, murine CD22-ECD-His coated
T2 construct: extracellular domain; also called murine CD22-ECD; murine CD22-ECD-His
T2 sequence (looked up): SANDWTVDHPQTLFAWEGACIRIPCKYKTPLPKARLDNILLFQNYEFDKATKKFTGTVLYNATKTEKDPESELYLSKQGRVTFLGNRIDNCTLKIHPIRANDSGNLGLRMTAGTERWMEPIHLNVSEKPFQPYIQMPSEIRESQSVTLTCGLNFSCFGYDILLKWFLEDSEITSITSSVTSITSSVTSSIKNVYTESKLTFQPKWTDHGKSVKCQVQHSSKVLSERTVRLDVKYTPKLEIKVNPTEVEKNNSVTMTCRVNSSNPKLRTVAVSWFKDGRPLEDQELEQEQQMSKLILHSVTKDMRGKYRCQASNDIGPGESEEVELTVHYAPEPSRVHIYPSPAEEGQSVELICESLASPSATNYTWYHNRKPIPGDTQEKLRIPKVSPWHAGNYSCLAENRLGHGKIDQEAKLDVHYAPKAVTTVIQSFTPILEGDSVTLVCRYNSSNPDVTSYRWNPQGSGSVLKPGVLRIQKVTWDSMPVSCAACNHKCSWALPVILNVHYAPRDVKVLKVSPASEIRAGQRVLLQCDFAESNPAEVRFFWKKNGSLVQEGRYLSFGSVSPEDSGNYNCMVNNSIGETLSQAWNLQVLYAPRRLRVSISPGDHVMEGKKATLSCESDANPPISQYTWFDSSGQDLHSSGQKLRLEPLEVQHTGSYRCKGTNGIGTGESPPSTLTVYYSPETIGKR
Summary of the method: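 Read-out is TMB absorbance after a 30 min room-temperature development stopped with 1.0 N HCl. It reflects chimeric antibody bound to plate-coated CD22 (2 μg/mL), detected with an HRP-labelled secondary antibody. Antibody and secondary incubations each ran 2 h at 37° C.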

[4] = molecular target: T1, human CD22-ECD-His protein; assay: ELISA, Ab 0.0001 nM
Summary of the method: as §1

[5] = molecular target: T1, human CD22-ECD-His protein; assay: ELISA, Ab 100.00 nM
Summary of the method: as §1

human CD22 domain5-7-His = molecular target: T3, human CD22 domain5-7-His (human, UniProt P20273 414-687); assay: ELISA, human CD22 domain5-7-His coated
T3 construct: also called hCD22 domain5-7-His; not shown: His tag
T3 sequence: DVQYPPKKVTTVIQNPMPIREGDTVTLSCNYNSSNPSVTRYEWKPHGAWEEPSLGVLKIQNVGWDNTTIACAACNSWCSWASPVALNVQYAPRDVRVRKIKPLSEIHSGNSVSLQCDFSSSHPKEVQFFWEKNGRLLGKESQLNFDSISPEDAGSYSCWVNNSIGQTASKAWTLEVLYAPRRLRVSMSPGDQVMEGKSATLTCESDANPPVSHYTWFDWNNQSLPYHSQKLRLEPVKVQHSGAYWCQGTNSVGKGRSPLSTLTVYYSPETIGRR

[6] = molecular target: T1, human CD22-ECD-His protein; assay: ELISA, human CD22-ECD-His coated
Summary of the method: as §1

[7] = molecular target: T1, human CD22-ECD-His protein; assay: ELISA, Ab 0.01 nM
Summary of the method: as §1

[8] = molecular target: T1, human CD22-ECD-His protein; assay: ELISA, Ab 0.10 nM
Summary of the method: as §1

[9] = molecular target: T1, human CD22-ECD-His protein; assay: ELISA, Ab 10.00 nM
Summary of the method: as §1

B1: F1.60.9 (antibody, human IgG1, kappa, V domains shown)
VH: QVQLKESGPGLVAPSQSLSITCTVSGLSLNNYGVSWVRQPPGKGLEWLGVIWGDGSTNYHSALISRLSISKDNSKSQVFLKLNSLHTDDTATYYCAINWGDYWGQGTTLIVSS
VL: DIKMTQSPSSMNASLGERVTITCKASQDINSYLSWFQQKPGKSPKILIYRANRLIDGVPSRFSGSGSGQDYSLTISSLEYEDMGIYYCLQYGVFPLTFGAGTKLELKR
notes: Human-murine chimeric IgG1, kappa
Q: How did the OD450 [1] turn out when B1 was run?
A: Its OD450 is 0.09 OD450.

Q: What about the OD450 [2] of the same binder?
A: The OD450 was 0.47 OD450.

Q: Does B1 bind [3]?
A: Result: no binding (tested: 100 nM)

Q: And the OD450 [4]?
A: The OD450 was 0.13 OD450.

Q: And the OD450 [5]?
A: The OD450 was 2.82 OD450.

Q: What about the “EC50 (read off the curve)” value (human CD22 domain5-7-His) of the same binder?
A: Its value is about 100 pM.

Q: And the “EC50 (read off the curve)” value [6]?
A: The value was about 50 pM.

Q: And the OD450 [7]?
A: The OD450 was 1.75 OD450.

Q: What about the OD450 [8] of the same binder?
A: Its OD450 is 2.59 OD450.

Q: And the OD450 [9]?
A: Its OD450 is 2.55 OD450.
